The labels stand for the following.
B5: MukF (E. coli kleisin of MukBEF) (natural protein)
chain: MSEFSQTVPELVAWARKNDFSISLPVDRLSFLLAVATLNGERLDGEMSEGELVDAFRHVSDAFEQTSETIGVRANNAINDMVRQRLLNRFTSEQAEGNAIYRLTPLGIGITDYYIRQREFSTLRLSMQLSIVAGELKRAADAAEEGGDEFHWHRNVYAPLKYSVAEIFDSIDLTQRLMDEQQQQVKDDIAQLLNKDWRAAISSCELLLSETSGTLRELQDTLEAAGDKLQANLLRIQDATMTHDDLHFVDRLVFDLQSKLDRIISWGQQSIDLWIGYDRHVHKFIRTAIDMDKNRVFAQRLRQSVQTYFDEPWALTYANADRLLDMRDEEMALRDEEVTGELPEDLEYEEFNEIREQLAAIIEEQLAVYKTRQVPLDLGLVVREYLSQYPRARHFDVARIVIDQAVRLGVAQADFTGLPAKWQPINDYGAKVQAHVIDKY

Assay [1] has as its target Smc1-Smc3-Scc1 trimer (S. cerevisiae cohesin) (S. cerevisiae, UniProt P32908;P47037;Q12158). The experiment in a line: SEC. On the technique in general: SEC sorts molecules by how far they enter the pores of the column.
Assay [2] has as its target B5. Put plainly: cross-linking.
Assay [3] concerns the target T1, MukB (E. coli SMC protein of MukBEF) (E. coli, UniProt P22523 1-1486).
T1 sequence: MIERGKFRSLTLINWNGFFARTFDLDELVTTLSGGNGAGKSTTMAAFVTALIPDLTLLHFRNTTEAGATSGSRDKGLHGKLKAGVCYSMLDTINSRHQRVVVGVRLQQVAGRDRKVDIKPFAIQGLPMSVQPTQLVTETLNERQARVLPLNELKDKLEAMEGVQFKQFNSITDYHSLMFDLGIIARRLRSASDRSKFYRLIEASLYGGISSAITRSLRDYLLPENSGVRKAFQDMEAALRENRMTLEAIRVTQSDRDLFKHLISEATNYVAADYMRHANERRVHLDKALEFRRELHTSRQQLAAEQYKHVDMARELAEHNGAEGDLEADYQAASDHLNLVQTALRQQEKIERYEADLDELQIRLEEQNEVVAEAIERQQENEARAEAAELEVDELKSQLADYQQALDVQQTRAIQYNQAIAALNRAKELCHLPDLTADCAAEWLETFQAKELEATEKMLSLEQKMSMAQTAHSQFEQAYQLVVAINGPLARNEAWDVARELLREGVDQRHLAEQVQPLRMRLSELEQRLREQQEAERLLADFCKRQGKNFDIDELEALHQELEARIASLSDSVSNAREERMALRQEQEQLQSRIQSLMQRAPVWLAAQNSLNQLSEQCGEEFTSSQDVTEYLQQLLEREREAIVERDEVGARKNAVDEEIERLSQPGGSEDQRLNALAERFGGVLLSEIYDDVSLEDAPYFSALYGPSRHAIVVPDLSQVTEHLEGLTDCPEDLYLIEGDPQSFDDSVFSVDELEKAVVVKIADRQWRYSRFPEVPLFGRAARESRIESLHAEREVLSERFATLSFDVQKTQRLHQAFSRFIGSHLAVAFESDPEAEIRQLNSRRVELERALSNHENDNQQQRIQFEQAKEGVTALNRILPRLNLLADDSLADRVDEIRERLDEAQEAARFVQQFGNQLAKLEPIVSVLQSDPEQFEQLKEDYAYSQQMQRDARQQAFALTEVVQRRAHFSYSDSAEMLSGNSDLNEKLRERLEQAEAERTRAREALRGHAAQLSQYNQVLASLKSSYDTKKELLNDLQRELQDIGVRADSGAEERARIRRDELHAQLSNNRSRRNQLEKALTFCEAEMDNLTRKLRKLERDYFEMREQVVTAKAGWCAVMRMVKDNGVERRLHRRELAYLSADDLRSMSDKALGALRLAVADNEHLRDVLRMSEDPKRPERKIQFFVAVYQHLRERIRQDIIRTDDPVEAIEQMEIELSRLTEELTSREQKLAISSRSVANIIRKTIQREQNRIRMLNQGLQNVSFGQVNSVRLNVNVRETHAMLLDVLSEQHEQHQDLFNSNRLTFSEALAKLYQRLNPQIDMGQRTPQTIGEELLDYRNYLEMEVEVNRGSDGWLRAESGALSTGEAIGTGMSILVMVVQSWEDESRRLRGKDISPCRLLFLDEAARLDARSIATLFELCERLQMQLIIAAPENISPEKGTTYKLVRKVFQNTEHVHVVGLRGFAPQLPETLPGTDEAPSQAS
Put plainly: SEC.

Assay [4] addresses B5. The experiment in a line: SEC.

From publication doi:10.1101/464701 (bioRxiv, 2018) come the findings set out here.

Sequence of Smc1-Smc3-Scc1 trimer (S. cerevisiae cohesin) (P32908 whole entry, chain 1 of 3): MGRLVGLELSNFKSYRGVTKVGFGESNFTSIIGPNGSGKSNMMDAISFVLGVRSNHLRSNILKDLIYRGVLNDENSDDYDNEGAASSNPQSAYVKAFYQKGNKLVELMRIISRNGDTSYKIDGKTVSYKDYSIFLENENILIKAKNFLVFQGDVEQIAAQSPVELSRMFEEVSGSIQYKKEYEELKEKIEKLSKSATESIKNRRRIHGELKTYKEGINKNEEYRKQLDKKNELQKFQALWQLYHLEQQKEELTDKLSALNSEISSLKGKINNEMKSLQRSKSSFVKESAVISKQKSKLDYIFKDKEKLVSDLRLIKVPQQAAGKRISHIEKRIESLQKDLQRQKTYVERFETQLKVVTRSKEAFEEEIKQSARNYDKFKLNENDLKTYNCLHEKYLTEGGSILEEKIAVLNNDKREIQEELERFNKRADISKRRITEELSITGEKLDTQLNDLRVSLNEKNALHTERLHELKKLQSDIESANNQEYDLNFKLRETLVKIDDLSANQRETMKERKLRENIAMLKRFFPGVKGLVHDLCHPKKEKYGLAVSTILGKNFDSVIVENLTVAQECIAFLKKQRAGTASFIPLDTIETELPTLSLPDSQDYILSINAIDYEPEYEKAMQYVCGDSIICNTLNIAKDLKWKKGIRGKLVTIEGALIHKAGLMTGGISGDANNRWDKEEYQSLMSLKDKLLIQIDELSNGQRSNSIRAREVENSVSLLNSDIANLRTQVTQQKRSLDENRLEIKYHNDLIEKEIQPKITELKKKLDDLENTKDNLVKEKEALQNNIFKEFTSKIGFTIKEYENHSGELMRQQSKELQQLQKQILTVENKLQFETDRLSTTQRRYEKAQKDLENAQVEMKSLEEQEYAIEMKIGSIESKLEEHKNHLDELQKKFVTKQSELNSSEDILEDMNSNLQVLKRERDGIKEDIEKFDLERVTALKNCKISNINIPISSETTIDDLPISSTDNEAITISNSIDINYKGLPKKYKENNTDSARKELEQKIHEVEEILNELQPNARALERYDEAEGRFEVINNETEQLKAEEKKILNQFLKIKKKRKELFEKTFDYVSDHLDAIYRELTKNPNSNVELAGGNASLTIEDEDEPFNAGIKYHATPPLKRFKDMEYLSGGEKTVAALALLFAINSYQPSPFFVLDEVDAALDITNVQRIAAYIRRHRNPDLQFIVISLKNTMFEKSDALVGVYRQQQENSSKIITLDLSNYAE
Sequence of Smc1-Smc3-Scc1 trimer (S. cerevisiae cohesin) (P47037 whole entry, chain 2 of 3): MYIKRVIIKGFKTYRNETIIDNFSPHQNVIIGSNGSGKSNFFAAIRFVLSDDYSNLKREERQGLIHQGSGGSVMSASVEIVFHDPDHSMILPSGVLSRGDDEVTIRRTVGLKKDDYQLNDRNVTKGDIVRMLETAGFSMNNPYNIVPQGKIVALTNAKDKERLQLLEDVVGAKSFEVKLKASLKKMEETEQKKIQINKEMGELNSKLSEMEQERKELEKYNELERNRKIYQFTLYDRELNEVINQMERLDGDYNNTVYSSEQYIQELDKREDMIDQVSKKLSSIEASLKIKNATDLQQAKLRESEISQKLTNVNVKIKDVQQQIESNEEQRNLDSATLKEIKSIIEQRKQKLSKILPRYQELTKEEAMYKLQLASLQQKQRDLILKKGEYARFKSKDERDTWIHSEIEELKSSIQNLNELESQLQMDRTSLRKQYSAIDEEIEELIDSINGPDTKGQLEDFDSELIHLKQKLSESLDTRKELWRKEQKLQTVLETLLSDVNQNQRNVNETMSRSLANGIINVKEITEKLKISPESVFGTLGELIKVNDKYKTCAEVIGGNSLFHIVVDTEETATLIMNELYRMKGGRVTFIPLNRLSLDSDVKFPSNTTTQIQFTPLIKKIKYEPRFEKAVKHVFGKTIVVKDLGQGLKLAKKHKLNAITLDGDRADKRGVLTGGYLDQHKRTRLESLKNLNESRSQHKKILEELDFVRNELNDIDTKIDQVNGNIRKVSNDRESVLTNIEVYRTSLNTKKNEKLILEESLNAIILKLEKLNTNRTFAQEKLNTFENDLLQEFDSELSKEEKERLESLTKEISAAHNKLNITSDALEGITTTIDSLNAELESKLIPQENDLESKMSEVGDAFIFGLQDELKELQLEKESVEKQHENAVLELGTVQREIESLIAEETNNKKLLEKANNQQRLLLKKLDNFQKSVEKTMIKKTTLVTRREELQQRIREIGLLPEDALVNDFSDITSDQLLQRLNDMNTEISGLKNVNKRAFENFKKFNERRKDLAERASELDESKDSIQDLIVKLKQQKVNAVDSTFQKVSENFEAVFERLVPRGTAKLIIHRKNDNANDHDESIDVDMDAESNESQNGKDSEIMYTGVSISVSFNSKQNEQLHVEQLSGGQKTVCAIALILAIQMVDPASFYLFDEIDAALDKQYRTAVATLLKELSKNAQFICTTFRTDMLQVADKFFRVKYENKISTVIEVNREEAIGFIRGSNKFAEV
Sequence of Smc1-Smc3-Scc1 trimer (S. cerevisiae cohesin) (Q12158 whole entry, chain 3 of 3): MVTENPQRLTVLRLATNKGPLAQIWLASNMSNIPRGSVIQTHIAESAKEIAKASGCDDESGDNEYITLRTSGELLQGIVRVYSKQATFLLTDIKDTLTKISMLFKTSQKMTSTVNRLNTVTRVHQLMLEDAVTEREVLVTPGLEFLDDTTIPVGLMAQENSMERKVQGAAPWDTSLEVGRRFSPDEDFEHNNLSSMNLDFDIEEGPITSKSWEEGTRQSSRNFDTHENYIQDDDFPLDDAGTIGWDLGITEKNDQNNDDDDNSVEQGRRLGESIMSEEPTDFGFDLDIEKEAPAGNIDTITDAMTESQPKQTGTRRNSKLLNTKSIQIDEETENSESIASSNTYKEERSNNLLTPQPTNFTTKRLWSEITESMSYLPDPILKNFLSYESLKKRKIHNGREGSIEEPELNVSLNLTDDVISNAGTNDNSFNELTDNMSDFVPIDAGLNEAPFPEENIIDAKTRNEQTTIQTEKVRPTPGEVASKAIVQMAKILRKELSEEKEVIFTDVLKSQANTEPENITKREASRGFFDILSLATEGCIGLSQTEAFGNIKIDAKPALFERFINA

B1: Scc2 residues 151-1493 (S. cerevisiae cohesin loader), recombinant (domain or fragment)
chain: SNAGNLSFNDNSSNKKTKTSTGVTMTQANLAEQYLNDLKNILDIVGFDQNSAEIGNIEYWLQLPNKKFVLTTNCLTKLQMTIKNITDNPQLSNSIEITWLLRLLDVMVCNIKFSKSSLKMGLDDSMLRYIALLSTIVLFNIFLLGKNDSNLHRESYIMEPVNFLSDLIESLKILTIEYGSLKIEFDTFQEALELLPKYIRNGPFLDDNVTAKLVYIFSDLLMNNDIEATTNIQFQSFWDNVKRISSDILVSLFGSFDQQRGFIIEELLSHIEKLPTKRIQKKLRKVGNQNIYITDFTFTLMSMLENINCYSFCNQMKDIAPENIDLLKNEYKKQEEFLFNIVEHINDTILERFFKNPSALRYVIDNFVQDLLLLISSPQWPVTEKILSSLLKRLLSVYSPSMQVSANIETICLQLIGNIGSTIFDIKCSTRDHEDNNLIKMINYPETLPHFFKSFEECIAYNETIKCRRSATRFLWNLRLGTILILEEYTKDAKEQIITVDNELKKILEQIKDGGLGPELENREADFSTIKLDYFSILHAFELLNLYDPYLKLILSLLAKDKIKLRSTAIKCLSMLASKDKVILSNPMVKETIHRRLNDSSASVKDAILDLVSINSSYFEFYQQINNNYNDDSIMVRKHVLRINEKMYDETNDIVTKVYVIARILMKIEDEEDNIIDMARLILLNRWILKVHEVLDQPEKLKEISSSVLLVMSRVAIMNEKCSQLFDLFLNFYLLNKEAHSKEAYDKITHVLTILTDFLVQKIVELNSDDTNEKNSIVDKQNFLNLLAKFADSTVSFLTKDHITALYPYMVSDEKSDFHYYILQVFRCTFEKLANFKQKFLYDLETTLLSRLPKMNVREIDEAMPLIWSVATHRHDTARVAKACSSCLSHLHPYINKANNEEAAIVVDGKLQRLIYLSTGFARFCFPKPSNDKIAFLQEGETLYEHITKCLLVLSKDKITHVIRRVAVKNLTKLCGNHPKLFNSRHVLHLLDKEFQSDQLDIKLVILESLYDLFLLEERKSVRNTGVNSTLSSNSILKKKLLKTNRVEFANDGVCSALATRFLDNILQLCLLRDLKNSLVAIRLLKLILKFGYTNPSHSIPTVIALFASTSQYIRHVAYELLEDLFEKYETLVFSSLSRGVTKAIHYSIHTDEKYYYKHDHFLSLLEKLCGTGKKNGPKFFKVLKRIMQSYLDDITDLTSTNSSVQKSIFVLCTNISNITFVSQYDLVSLLKTIDLTTDRLKEVIMDEIGDNVSSLSVSEEKLSGIILIQLSLQDLGTYLLHLYGLRDDVLLLDIVEESELKNKQLPAKKPDISKFSAQLENIEQYSSNGKLLTYFRKHVKDT
Take B1: the binding result in assay [1] was “binds”.

B2: Scc3 (S. cerevisiae cohesin HAWK protein), recombinant (natural protein)
chain: MTAVRRSTRIRTKSQVIEEDYDDEQNTSAQHVESDKITAKTQHEEEEEQDTGESEESSSEDDYEDQDDDDYVDTATAKRKSRKRKPKSASNTSSKRQKKKPTSAQKSAVSHAPAYHRSKKDQDQYLEIAKDFQPTELFDILSTSEDVSIEELLREWLETYSENRDKFLQEFINLLLNCCGSVARVEDHDVHSNESSNETIGEIQLLFQRQKLHEFYLLISKENKKRKNFKMGPLYQNFAEFMTKLLEVANDLQLLYVESDEDDTQIVTGNLVLDLLTWLSSFSVCKIRCFRYISTLTLYLFQDYLTQQAVNLEKNYLAKLSKQLSLEEKKKRPNNKTLEKLESTIAETQGSKVVIDSIIDNIVKLCFVHRYKDVSDLIRSESMLHLSIWIKNYPEYFLKVTFLKYFGWLLSDNSVSVRLQVTKILPHLIIQNHNSKSTDNSAIRQVFERFKTKILEVAIRDVNLDVRIHSIQVLTEASSLGYLDDSEILIISSLMFDEEFDPFKTSSFNKRSKFLSTVAKFLARVIKEKFDEFIKTHEDLPKEVDGLEVGPVVQVGIFIKILNDSLIYHLKDCAEVDSRTKIRMLTQAAEFLSPYISTHLKTICNLLISDTESNELIQKLQNSANNNSDDEDVDDEELDITPLFPIDRNSTILYLNVFHGLCAGANNPKIQTKDSVKEIVLPLFYDLLNAASIESADILCPLLESFITFSLDDWISIGYETELKKITDKTIKAFMDSTIGNSKVDMKYDIFAKFIHHIHHFEKKELQEKFLNQIATLKIHLKKFLQEKMDPNNSRDDYKDLTCSLYELYINKLTILGRDYPIEVDEELLQLFLNNFVSRIPIMFQDFDDSTAQEINFKMLVLLATWNLEKWREIIEKVRDYENSISKDLRSVWKPIAAIIGRLNTLVISLAATNETFENINSLFYLKWSACTSLMDIIVAIKIFELKLPADATTWRYSMSEQFPFYLHDNASKVLLKIFLYLESLFAKQVDVQLERVADEDANLNDLPETGFFENIETEFLLFTVKLKGLMKLNILDERFASRVALNKEKLGPLFKKIVDDTIMENPEPNKKNIQKAKSNQTQREKAPLQPNSERETDHANTENNDPDIPMTIDLEPIEESSQNNSELAPIEEHPTVVDAIDNSDEITQD
With B2, the binding result in assay [1] is “binds”.

B3: MukE (E. coli KITE protein of MukBEF), untagged, from the co-expressed holocomplex (natural protein)
chain: MSSTNIEQVMPVKLAQALANPLFPALDSALRSGRHIGLDELDNHAFLMDFQEYLEEFYARYNVELIRAPEGFFYLRPRSTTLIPRSVLSELDMMVGKILCYLYLSPERLANEGIFTQQELYDELLTLADEAKLLKLVNNRSTGSDVDRQKLQEKVRSSLNRLRRLGMVWFMGHDSSKFRITESVFRFGADVRAGDDPREAQRRLIRDGEAMPIENHLQLNDETEENQPDSGEEE
As for B3, the binding result in assay [2] and in assay [3] was “binds” each time.

B4: MukE (E. coli) made as His6-SUMO-MukE for the MukEF preparation (natural protein)
chain: MSSTNIEQVMPVKLAQALANPLFPALDSALRSGRHIGLDELDNHAFLMDFQEYLEEFYARYNVELIRAPEGFFYLRPRSTTLIPRSVLSELDMMVGKILCYLYLSPERLANEGIFTQQELYDELLTLADEAKLLKLVNNRSTGSDVDRQKLQEKVRSSLNRLRRLGMVWFMGHDSSKFRITESVFRFGADVRAGDDPREAQRRLIRDGEAMPIENHLQLNDETEENQPDSGEEE
Take B4: in assay [4], the binding result is on record as “binds”.

B5: the binding result in assay [3] is listed as “binds”.

B6: MukEF complex (E. coli) (complex)
chain 1: MSSTNIEQVMPVKLAQALANPLFPALDSALRSGRHIGLDELDNHAFLMDFQEYLEEFYARYNVELIRAPEGFFYLRPRSTTLIPRSVLSELDMMVGKILCYLYLSPERLANEGIFTQQELYDELLTLADEAKLLKLVNNRSTGSDVDRQKLQEKVRSSLNRLRRLGMVWFMGHDSSKFRITESVFRFGADVRAGDDPREAQRRLIRDGEAMPIENHLQLNDETEENQPDSGEEE
chain 2: MSEFSQTVPELVAWARKNDFSISLPVDRLSFLLAVATLNGERLDGEMSEGELVDAFRHVSDAFEQTSETIGVRANNAINDMVRQRLLNRFTSEQAEGNAIYRLTPLGIGITDYYIRQREFSTLRLSMQLSIVAGELKRAADAAEEGGDEFHWHRNVYAPLKYSVAEIFDSIDLTQRLMDEQQQQVKDDIAQLLNKDWRAAISSCELLLSETSGTLRELQDTLEAAGDKLQANLLRIQDATMTHDDLHFVDRLVFDLQSKLDRIISWGQQSIDLWIGYDRHVHKFIRTAIDMDKNRVFAQRLRQSVQTYFDEPWALTYANADRLLDMRDEEMALRDEEVTGELPEDLEYEEFNEIREQLAAIIEEQLAVYKTRQVPLDLGLVVREYLSQYPRARHFDVARIVIDQAVRLGVAQADFTGLPAKWQPINDYGAKVQAHVIDKY
For the molecule B6, the binding result in assay [3] was “binds”.
